We go through two substances from paper PMC2156119.

Like-named read-outs stand apart in the source and are kept apart here.

Test [1] concerns the target Op18-Δ5-9-F (human). Kind of test: pull-down.
The target of test [2] is Op18-Δ5-9-F (human). In words: pull-down. This is another data set of the same source.
For test [3], the target named is tubulin as used by Curmi et al. 1997. Kind of test: plasmon resonance measurement. The settings on record: pH 6.5; cited from earlier work.

Consider “tubulin heterodimer (bovine tubulin) (from UniProt Q6B856 1-445) (complex)”, for which, in the test with Op18-Δ5-9-F (human) [1], the Free [tubulin] at half saturation of Op18 is 7.1 µM, the Kd1 (first tubulin heterodimer) amounted to 74 µM, the Kd2 (second tubulin heterodimer) is 0.98 µM and the stoichiometry N (mol tubulin per mol) came out at 2.1. In the test with Op18-Δ5-9-F (human) [2], the Kd1 (first tubulin heterodimer) turned out to be 6.5 µM and the Kd2 (second tubulin heterodimer) is 0.91 µM.

As a reminder, the Kd is the constant that tells how readily two partners part at equilibrium. Consider “stathmin/Op18 as used by Curmi et al. 1997”, for which the Kd in test [3] was 500 nM.
